Sequences and labels used below:
B1: Adenylate kinase, P16304 (parent)
chain: MNLVLMGLPGAGKGTQGERIVEDYGIPHISTGDMFRAAMKEETPLGLEAKSYIDKGELVPDEVTIGIVKERLGKDDCERGFLLDGFPRTVAQAEALEEILEEYGKPIDYVINIEVDKDVLMERLTGRRICSVCGTTYHLVFNPPKTPGICDKDGGELYQRADDNEETVSKRLEVNMKQTQPLLDFYSEKGYLANVNGQQDIQDVYADVKDLLGGLKK

In the data set the parent is B1. To be noted: Bacillus subtilis (strain 168), pH 7, CD, transition: 2, reversible: yes, structure 2EU8, whole UniProt chain shown; for Tm / change of melting temperature, mutant - wild type (higher = more stable): Thermal, KH2PO4 10mM; for ddG of mutation (higher = less stable) / unfolding free energy: 20 °C, GdnHCl, Phosphate buffer 10mM.

On to Q199R G214K, for which the Tm stood at 48.4 °C and the “change of melting temperature, mutant - wild type (higher = more stable)” value (shortened to “change of melting temperature, mutant”) is 0 °C.

In the case of Q199R G214A, the Tm came to 49.1 °C and the “change of melting temperature, mutant” value came out at 0.7 °C.

For Q199R G214R, the “ddG of mutation (higher = less stable)” value was -2.63 kcal/mol; the unfolding free energy stood at 5.97 kcal/mol; the Tm turned out to be 53.4 °C; the “change of melting temperature, mutant” value is 5 °C.

For G214R, the Tm stood at 49.8 °C and the “change of melting temperature, mutant” value was determined as 1.4 °C.

Consider Q199R A193V, for which the “ddG of mutation (higher = less stable)” value is -2.87 kcal/mol; the unfolding free energy turned out to be 6.21 kcal/mol; the Tm turned out to be 54.6 °C; the “change of melting temperature, mutant” value came out at 6.2 °C.

T179I: the Tm was 47.8 °C and the “change of melting temperature, mutant” value is -0.6 °C.

For the variant Q199R Q16L, the “ddG of mutation (higher = less stable)” value is -3.35 kcal/mol; the unfolding free energy came to 6.69 kcal/mol; the Tm was found to be 63.3 °C; the “change of melting temperature, mutant” value came to 14.9 °C.

With Q199R T179I, the “ddG of mutation (higher = less stable)” value is -2.4 kcal/mol; the unfolding free energy was 5.74 kcal/mol; the melting temperature (Tm) stood at 53.3 °C; the “change of melting temperature, mutant” value stood at 4.9 °C.

As to Q199R G213Q, the Tm was found to be 39.3 °C and the “change of melting temperature, mutant” value was -9.1 °C.

On to Q199R G213E, for which the “ddG of mutation (higher = less stable)” value is -1.68 kcal/mol; the unfolding free energy came to 5.02 kcal/mol; the Tm was 51.4 °C; the “change of melting temperature, mutant” value stood at 3 °C.

As to Q199R G213A, the Tm came out at 37.9 °C and the “change of melting temperature, mutant” value was -10.5 °C.

In the case of A193V, the Tm came out at 48.9 °C and the “change of melting temperature, mutant” value came out at 0.5 °C.

Take Q199R: the “ddG of mutation (higher = less stable)” value is -0.48 kcal/mol; the unfolding free energy was 3.82 kcal/mol; the Tm was found to be 49.5 °C; the “change of melting temperature, mutant” value turned out to be 1.1 °C.

As a reminder, the Tm is the temperature at which the thermal transition is half complete.
